Data: patent US20100173005A1, “MICROPARTICLE FORMULATIONS FOR SUSTAINED-RELEASE OF BIOACTIVE COMPOUNDS” (POWDER PHARMACEUTICALS INCORPORATED, priority 1999, published 2010)

Experiments:
[1] = Sustained release of lysozyme from sulfated dextran hydrogel beads: PBS wash then high salt elution, UV detection; type: physicochemical
Excerpt: A preparation of cross-linked, sulfated dexan affinity chromatography resin beads were obtained from a commercial source (Sigma. St, Louis, Mo.). More particularly, 4% cross-linked sulfated beaded dextran was obtained as a lyophilized powder stabilized in lactose. The sulfate ligand will bind with a charged guest substance (e.g. a peptide or protein) at low salt concentration. This binding is reversible and the bound guest can be desorbed at a high salt concentration.
In the study, lysozyme (Sigma) was loaded into the beads using the techniques described in commonly held International Application No. PCT/GB00/00349.
Particularly, each gram of the sulfated dextran beads was washed with approximately 3×500 ml deionized water. Excess water was removed by vacuum filtration. A loading solution was prepared by dissolving 4.00 g lysozyme in 200 ml deionized water, yielding a 20 mg/ml solution. The loading solution was added to the hydrated dextran beads at a 1:1 ratio to provide a suspension. The suspension was stirred for one hour, and excess solution was drained from the hydrated beads. The loaded beads were then divided into two portions. The first portion (5.7 cc, experimental) was placed into a column (Econo column, BioRad, Hercules, Calif.) and washed with a phosphate buffered saline (PBS) solution (pH 7.4) for 19.6 hours, then eluted with 21.2 ml of a high salt elution buffer (1.0M ammonium sulfate, 50 mM sodium phosphate, pH 7.2). […] The amount of lysozyme released from the dextran beads during the PBS wash was determined by comparison against the amount of lysozyme eluted by the elution solution for both the experimental and the control portions.
Lysozyme concentration was determined using a UV detector (BioRad UV detector). A standard curve (UV absorption vs lysozyme concentration) was prepared by measuring the UV absorption of stock lysozyme solutions at different concentration ranging from 1 mg/ml to 4 mg/ml, Concentrations of the unknowns were then determined by extrapolation of the standard curve. […]

[2] = Repeat sustained release study of lysozyme from sulfated dextran beads: PBS elution at 0.84 ml/min, HPLC analysis; type: physicochemical
Procedure: The sustained release study described in the above Example was repeated except, in this instance, a different elution rate was used to determine if the rate of release of the lysozyme guest substance from the dextran is a function of the flow rate of the elution buffer.
More particularly, sulfated dextran beads were loaded with lysozyme as described in the above Example. The specifics of the loading were as follows: 42.4 g of the hydrated dextran beads was stirred in 100 ml of lysozyme solution (to yield a 20.11 mg/ml solution) for 1 hour. The loaded beads were then loaded into a column as described above for a further sustained release study.
For the PBS elution, the PBS wash (pH 7.4) was used to elute lysozyme from the beads at a flow rate of 0.84 ml/min for 20.6 hours. The eluted solution was collected in fractions, and the elution fractions were analyzed with HPLC for lysozyme concentration using a Vydac C18 HPLC column. For the high-salt elution, the remaining lysozyme in the beads was then eluted with the high-salt elution buffer at a rate of […].
The amount of lysozyme protein that eluted with the PBS wash was 39.51 mg and, from the high salt elution, the amount of lysozyme was 40.34 mg. Accumulated percent lysozyme release (Y) was plotted against elution time (X).

lysozyme
amount of lysozyme eluted in the elution buffer ([1]; control portion, immediately eluted with high salt elution buffer alone): 10.5 mg/ml wet beads | amount of lysozyme eluted in the elution buffer ([1]; experimental portion (PBS washed beads, 19.6 hours), high salt elution buffer 1.0M ammonium sulfate, 50 mM sodium phosphate, pH 7.2): 3.72 mg/ml beads | amount of lysozyme released during the PBS wash ([1]; experimental portion, PBS pH 7.4 wash for 19.6 hours, UV detector): not detectable | release rate (slope of accumulated percent release vs elution time) ([2]; PBS elution at 0.84 ml/min, line equation Y=1.49X+0.242): 1.49 %/hr | amount of lysozyme protein eluted with the PBS wash ([2]; PBS pH 7.4, flow rate 0.84 ml/min for 20.6 hours, HPLC): 39.51 mg | amount of lysozyme from the high salt elution ([2]; remaining lysozyme eluted with high-salt elution buffer after the PBS wash): 40.34 mg
